Source: patent US20080292620A1

Target: T1, human prolactin receptor (PRLR), full length on cells (human) (UniProt P16471)
T1 sequence: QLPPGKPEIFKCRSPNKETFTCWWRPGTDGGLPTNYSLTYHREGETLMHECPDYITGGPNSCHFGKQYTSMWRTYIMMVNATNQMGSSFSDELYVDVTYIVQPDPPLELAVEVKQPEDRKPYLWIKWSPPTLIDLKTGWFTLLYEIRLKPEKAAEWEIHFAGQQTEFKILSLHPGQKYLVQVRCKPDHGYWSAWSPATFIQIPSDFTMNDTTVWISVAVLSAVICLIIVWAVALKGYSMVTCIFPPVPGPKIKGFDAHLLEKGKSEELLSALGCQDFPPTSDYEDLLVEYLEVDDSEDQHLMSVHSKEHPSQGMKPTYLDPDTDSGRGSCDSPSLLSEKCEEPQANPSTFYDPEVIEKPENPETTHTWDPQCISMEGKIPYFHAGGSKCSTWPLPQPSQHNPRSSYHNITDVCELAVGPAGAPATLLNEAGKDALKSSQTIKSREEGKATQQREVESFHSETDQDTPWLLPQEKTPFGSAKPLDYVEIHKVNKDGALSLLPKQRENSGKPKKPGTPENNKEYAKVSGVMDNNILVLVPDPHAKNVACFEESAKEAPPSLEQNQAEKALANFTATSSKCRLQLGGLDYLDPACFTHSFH
Assay: flow cytometry on CHO-K1 cells expressing human PRLR (clone 1G5)

## mAb 1167, control murine anti-PRLR monoclonal antibody (R&D Systems, catalog #MAB1167)
  MFI: 33.8
